Reference: patent US12076390 (Dana-Farber, dated 2024)

Biological target: HA of A/Vietnam/1203/04 on pseudotyped virus (H5-VN04 pseudovirus) (influenza A virus A/Vietnam/1203/04 …)
Test: cell-based or functional assay

B1: 3I14 VLD94N IgG1 (antibody, V domains shown)
VH: QVQLLESGGGVVQPGRSLRLSCAASGFTFSNYGMHWVRQAPGKGLEWVAIISFDGSKKYYANSVKGRSTISRDNSKNTLSLQMNSLGPEDTALYYCAKLPSPYYFDSRFVWVAASAFHFWGQGILVTVSS
VL: NFMLTQPPSASGTPGQRVTISCSGSSSNIGGNTVHWFQQLPGTAPKLLIYTNSLRPSGVPDRFSGSKSGTSASLAISGLQSEDEADYYCAAWDNSLNGQVFGGGTKLTVL
  IC50, neutralization of H5-VN04 pseudovirus: 8.65 ng/mL
